Molecular target: F-actin prepared by polymerizing β-actin (UniProt P60709 1-375)
Test: co-sedimentation

B1: ZO-1 ABR construct for co-sedimentation (EGFP-ZO-1(1159–1382)-Dual Strep) (domain or fragment, human, UniProt Q07157 1159-1382, looked up)
chain: EQPAPGYDTHGRLRPEAQPHPSAGPKPAESKQYFEQYSRSYEQVPPQGFTSRAGHFEPLHGAAAVPPLIPSSQHKPEALPSNTKPLPPPPTQTEEEEDPAMKPQSVLTRVKMFENKRSASLETKKDVNDTGSFKPPEVASKPSGAPIIGPKPTSQNQFSEHDKTLYRIPEPQKPQLKPPEDIVRSNHYDPEEDEEYYRKQLSYFDRRSFENKPPAHIAASHLSE
In the case of B1, the Kd is reported as about 10 µM.

Source: publication PMC7530003 (Developmental cell, 2020)
